Here are results for 28 molecules from patent publication US20260116963A1 (GENERATE BIOMEDICINES, published 2026).

Numbering of substitutions follows the chain as printed.

Experiment [1] addresses T1, human IL-13 (human, UniProt P35225 25-146, limits assumed).
T1 construct: The KinExA antigen was detected with an anti-HIS IgG, so it probably carried a HIS tag; also called Interleukin-13; hIL-13
As to the kind of experiment: SPR (Biacore 8K+), antibody captured on anti-human pAb CM4 chip, human IL-13 0.6-10 nM as analyte, 37 C, 1:1 fit.

Experiment [2] concerns the target T1, human IL-13. The experiment can be described thus: cell-based or functional assay.
Experiment [3] has as its target T1, human IL-13. As to the kind of experiment: SPR (Biacore 8K+), antibody captured, human IL-13 as analyte, 37 C; less than 5% decay in 5,400 s, KD estimated.
Experiment [4] concerns the target T1, human IL-13. The experiment can be described thus: SPR array (Carterra LSA), antibody captured on anti-human pAb HC30M chip, human IL-13 0.05-100 nM as analyte, 25 C, 1:1 fit.

T1 sequence (P35225 other isoform, or with tags, fused parts or gaps limits assumed): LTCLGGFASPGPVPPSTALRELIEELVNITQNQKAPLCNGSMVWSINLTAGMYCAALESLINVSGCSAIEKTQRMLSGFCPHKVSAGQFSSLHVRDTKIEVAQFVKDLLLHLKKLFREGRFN

B1: AbA (antibody, human IgG1, kappa, V domains shown)
VH: QVTLRESGPALVKPTQTLTLTCTVSGFSLSAYSVNWIRQPPGKALEWLAMIWGDGKIVYNSALKSRLTISKDTSKNQVVLTMTNMDPVDTATYYCAGDGYYPYAMDNWGQGSLVTVSS
VL: DIVMTQSPDSLSVSLGERATINCRASKSVDSYGRSYMHWYQQKPGQPPKLLIYLASNLESGVPDRFSGSGSGTDFTLTISSLQAEDVAVYYCQQNNEDPRTFGGGTKVEIKR
In the experiment with human IL-13 [1], B1 yielded a Kd of 0.0162 nM, a koff of 1.11e-05 s⁻¹ and a kon of 847000 M⁻¹ s⁻¹. The “IC50, HEK-Blue IL-13Ra1/IL-4Ra STAT6-SEAP reporter assay” value in the experiment with human IL-13 [2] turned out to be 0.123 µg/mL.

B2: AbB (antibody, human IgG1, kappa, V domains shown)
VH: B1 VH with F27A
VL: B1 VL with S31Y, R34H
Turning to B2, in the experiment with human IL-13 [1], the equilibrium dissociation constant (Kd) came to 0.0215 nM, the koff was 1.02e-05 s⁻¹ and the on-rate (kon) is 552000 M⁻¹ s⁻¹. Besides, the “IC50, HEK-Blue IL-13Ra1/IL-4Ra STAT6-SEAP reporter assay” value in the experiment with human IL-13 [2] came to 0.132 µg/mL.

B3: AbE (antibody, human IgG1, kappa, V domains shown)
VH: B1 VH with F27A, Y101F
VL: B1 VL with R34H, L54W
With B3, in the experiment with human IL-13 [3], the dissociation constant Kd was below 0.015 nM. Besides, the “IC50, HEK-Blue IL-13Ra1/IL-4Ra STAT6-SEAP reporter assay” value with human IL-13 [2] is 0.118 µg/mL.

B4: AbP (antibody, human IgG1, kappa, V domains shown)
VH: B1 VH with F27A, I57V, Y101F, N107H
VL: B1 VL with R34N, L54W
B4: in the experiment with human IL-13 [3], the Kd was below 0.015 nM. Moreover, the “IC50, HEK-Blue IL-13Ra1/IL-4Ra STAT6-SEAP reporter assay” value in the experiment with human IL-13 [2] is 0.152 µg/mL.

B5: AbM (antibody, human IgG1, kappa, V domains shown)
VH: B1 VH with F27A, Y101F
VL: B1 VL with S31Y
For B5, the Kd with human IL-13 [3] was below 0.015 nM. In addition, the “IC50, HEK-Blue IL-13Ra1/IL-4Ra STAT6-SEAP reporter assay” value with human IL-13 [2] turned out to be 0.136 µg/mL.

B6: AbL (antibody, human IgG1, kappa, V domains shown)
VH: B1 VH with A31R
VL: B1 VL
In the case of B6, the Kd with human IL-13 [3] was below 0.015 nM. In addition, in the experiment with human IL-13 [2], the “IC50, HEK-Blue IL-13Ra1/IL-4Ra STAT6-SEAP reporter assay” value came out at 0.32 µg/mL.

B7: AbK (antibody, human IgG1, kappa, V domains shown)
VH: B1 VH with F27S, A31R
VL: B1 VL with K27Q, R34N
Consider B7, for which the Kd in the experiment with human IL-13 [3] is below 0.015 nM. Also, the “IC50, HEK-Blue IL-13Ra1/IL-4Ra STAT6-SEAP reporter assay” value with human IL-13 [2] came out at 0.172 µg/mL.

B8: AbN (antibody, human IgG1, kappa, V domains shown)
VH: B1 VH with F27A
VL: B1 VL with K27E, S31Y, R34H
Regarding B8, in the experiment with human IL-13 [3], the Kd was below 0.015 nM. Moreover, the “IC50, HEK-Blue IL-13Ra1/IL-4Ra STAT6-SEAP reporter assay” value with human IL-13 [2] came out at 0.14 µg/mL.

B9: AbO (antibody, human IgG1, kappa, V domains shown)
VH: B1 VH with F27Y, Y101F, N107V
VL: B1 VL with S31Y, R34H
As for B9, the dissociation constant (Kd) with human IL-13 [3] is below 0.015 nM. The “IC50, HEK-Blue IL-13Ra1/IL-4Ra STAT6-SEAP reporter assay” value with human IL-13 [2] was 0.165 µg/mL.

B10: AbF (antibody, human IgG1, kappa, V domains shown)
VH: B1 VH with F27A, A31R, G55A, Y101F
VL: B1 VL with K27E, R34N
With B10, the Kd in the experiment with human IL-13 [3] is below 0.015 nM. Also, the “IC50, HEK-Blue IL-13Ra1/IL-4Ra STAT6-SEAP reporter assay” value in the experiment with human IL-13 [2] was 0.126 µg/mL.

B11: AbH (antibody, human IgG1, kappa, V domains shown)
VH: B1 VH with F27A, A31R
VL: B1 VL with R34N, L54R
As for B11, the Kd with human IL-13 [3] was below 0.015 nM. The “IC50, HEK-Blue IL-13Ra1/IL-4Ra STAT6-SEAP reporter assay” value with human IL-13 [2] was found to be 0.107 µg/mL.

B12: AbC (antibody, human IgG1, kappa, V domains shown)
VH: B1 VH with N107Y
VL: B1 VL with S31Y, R34N
In the experiment with human IL-13 [1], B12 came in with a dissociation constant (Kd) of 0.0273 nM, a koff of 2.98e-05 s⁻¹ and a kon of 1.09e+06 M⁻¹ s⁻¹. Further, the “IC50, HEK-Blue IL-13Ra1/IL-4Ra STAT6-SEAP reporter assay” value in the experiment with human IL-13 [2] is 0.118 µg/mL.

B13: AbI (antibody, human IgG1, kappa, V domains shown)
VH: B1 VH with F27A, A31R, Y100F
VL: B1 VL with R34N
As for B13, the Kd with human IL-13 [3] is below 0.015 nM. Also, the “IC50, HEK-Blue IL-13Ra1/IL-4Ra STAT6-SEAP reporter assay” value with human IL-13 [2] turned out to be 0.223 µg/mL.

B14: AbJ (antibody, human IgG1, kappa, V domains shown)
VH: B1 VH with F27A, G55R, I57K, Y101F, N107L
VL: B1 VL with R34H, L54W
Take B14: the Kd in the experiment with human IL-13 [3] is below 0.015 nM. For the same molecule, the “IC50, HEK-Blue IL-13Ra1/IL-4Ra STAT6-SEAP reporter assay” value in the experiment with human IL-13 [2] is 0.167 µg/mL.

B15: AbD (antibody, human IgG1, kappa, V domains shown)
VH: B1 VH with F27S, I57V, Y101F
VL: B1 VL with R34N
As for B15, the equilibrium dissociation constant (Kd) with human IL-13 [3] is below 0.015 nM. In addition, in the experiment with human IL-13 [2], the “IC50, HEK-Blue IL-13Ra1/IL-4Ra STAT6-SEAP reporter assay” value stood at 0.161 µg/mL.

B16: NB-13 (antibody, human IgG4 S228P, kappa)
heavy: QVTLRESGPALVKPTQTLTLTCTVSGFSLSAYSVNWIRQPPGKALEWLAMIWGDGKIVYNSALKSRLTISKDTSKNQVVLTMTNMDPVDTATYYCAGDGYYPYAMDNWGQGSLVTVSSASTKGPSVFPLAPCSRSTSESTAALGCLVKDYFPEPVTVSWNSGALTSGVHTFPAVLQSSGLYSLSSVVTVPSSSLGTKTYTCNVDHKPSNTKVDKRVESKYGPPCPPCPAPEFLGGPSVFLFPPKPKDTLYITREPEVTCVVVDVSQEDPEVQFNWYVDGVEVHNAKTKPREEQFNSTYRVVSVLTVLHQDWLNGKEYKCKVSNKGLPSSIEKTISKAKGQPREPQVYTLPPSQEEMTKNQVSLTCLVKGFYPSDIAVEWESNGQPENNYKTTPPVLDSDGSFFLYSRLTVDKSRWQEGNVFSCSVMHEALHNHYTQKSLSLSLGK
light: DIVMTQSPDSLSVSLGERATINCRASKSVDSYGNSFMHWYQQKPGQPPKLLIYLASNLESGVPDRFSGSGSGTDFTLTISSLQAEDVAVYYCQQNNEDPRTFGGGTKVEIKRTVAAPSVFIFPPSDEQLKSGTASVVCLLNNFYPREAKVQWKVDNALQSGNSQESVTEQDSKDSTYSLSSTLTLSKADYEKHKVYACEVTHQGLSSPVTKSFNRGEC
In turn, B16 displayed an equilibrium dissociation constant (Kd) with human IL-13 [4] below 0.1 nM.

B17: NB-5 (antibody, human IgG4 S228P, kappa, V domains shown)
VH: B1 VH with F27A, D54S
VL: B1 VL with R34N, Y36F
Turning to B17, in the experiment with human IL-13 [4], the affinity, expressed as Kd, was 4.24 nM; the dissociation rate constant (koff) came to 0.00127 s⁻¹; the association rate constant (kon) amounted to 303000 M⁻¹ s⁻¹.

B18: NB-9 (antibody, human IgG4 S228P, kappa, V domains shown)
VH: B1 VH with D54S
VL: B1 VL with R34N, Y36F
In the experiment with human IL-13 [4], B18 registered a Kd of 2.41 nM, a koff of 0.000734 s⁻¹ and a kon of 305000 M⁻¹ s⁻¹.

B19: NB-3 (antibody, human IgG4 S228P, kappa, V domains shown)
VH: B1 VH with F27A, A31S, D98E, N107V
VL: B1 VL with R34N
In the case of B19, in the experiment with human IL-13 [4], binding was put at a Kd of 1.89 nM, the koff was 0.00047 s⁻¹ and the kon amounted to 290000 M⁻¹ s⁻¹.

B20: NB-10 (antibody, human IgG4 S228P, kappa, V domains shown)
VH: B1 VH with F27A
VL: B1 VL with S31Y, R34N, Y36F, R100L
In the experiment with human IL-13 [4], B20 yielded a Kd of 13.6 nM, a koff of 0.000805 s⁻¹ and an on-rate (kon) of 62000 M⁻¹ s⁻¹.

B21: NB-11 (antibody, human IgG4 S228P, kappa, V domains shown)
VH: B1 VH with F27A, K56T, Y101F
VL: B1 VL with R34H, Y36F
In the experiment with human IL-13 [4], B21 gave a dissociation constant Kd of 0.97 nM, an off-rate (koff) of 0.000135 s⁻¹ and a kon of 139000 M⁻¹ s⁻¹.

B22: NB-4 (antibody, human IgG4 S228P, kappa, V domains shown)
VH: B1 VH with F27A
VL: B1 VL with R34N, Y36F, R100L
In the experiment with human IL-13 [4], B22 came in with a Kd of 13.6 nM, a koff of 0.000987 s⁻¹ and an on-rate constant (kon) of 74000 M⁻¹ s⁻¹.

B23: NB-8 (antibody, human IgG4 S228P, kappa, V domains shown)
VH: B1 VH with F27A, D98E, N107Y
VL: B1 VL with R34N, Y36F
B23: in the experiment with human IL-13 [4], the Kd was determined as 2.56 nM, the off-rate constant (koff) was 0.000674 s⁻¹ and the kon was 259000 M⁻¹ s⁻¹.

B24: NB-1 (antibody, human IgG4 S228P, kappa, V domains shown)
VH: B1 VH with F27A, D98L, N107L
VL: B1 VL with R34N, Y36F
On to B24, for which, in the experiment with human IL-13 [4], binding was characterised by a dissociation constant (Kd) of 5.21 nM, the koff came to 0.000601 s⁻¹ and the association rate constant (kon) came out at 117000 M⁻¹ s⁻¹.

B25: NB-7 (antibody, human IgG4 S228P, kappa, V domains shown)
VH: B1 VH
VL: B1 VL with R34N, Y36F, R100L
Regarding B25, in the experiment with human IL-13 [4], the dissociation constant (Kd) was 8.35 nM, the koff was 0.000827 s⁻¹ and the kon was 100000 M⁻¹ s⁻¹.

B26: NB-12 (antibody, human IgG4 S228P, kappa, V domains shown)
VH: B1 VH with F27A, Y103W
VL: B1 VL with K27Q, R34N, Y36F
In the experiment with human IL-13 [4], B26 yielded a Kd of 6.09 nM, a koff of 0.000711 s⁻¹ and a kon of 117000 M⁻¹ s⁻¹.

B27: NB-2 (antibody, human IgG4 S228P, kappa, V domains shown)
VH: B1 VH with D98L
VL: B1 VL with R34N, Y36F
In the case of B27, in the experiment with human IL-13 [4], the dissociation constant (Kd) is 6.67 nM, the koff was found to be 0.000618 s⁻¹ and the kon was determined as 93000 M⁻¹ s⁻¹.

B28: NB-6 (antibody, human IgG4 S228P, kappa, V domains shown)
VH: B1 VH with F27A, W52S
VL: B1 VL with R34N, Y36F
In the case of B28, in the experiment with human IL-13 [4], the affinity, expressed as Kd, was 3.34 nM; the koff amounted to 0.000855 s⁻¹; the kon came to 258000 M⁻¹ s⁻¹.
